Data published in publication PMC12014896 (2025).

B1: COVIC-295 (antibody, V domains shown)
VH: QVQLVQSGAEVKKPGSSVKVSCKASGGTFSSYSFIWVRQAPGQGLEWMGRIIPILGIANYAQKFQGRVTITADKSTTTAYMELSSLRSEDTAVYYCARGTEYGDYDVSHDWGQGTLVTVSS
VL: not shown
B2: COVIC-186 (antibody, V domains shown)
VH: QVQLLQSGAEVKKPGASVKVSCKASGYSFTSYYMHWVRQAPGQGLEWMGIINPSGGGTTYAQKFQGRVTMTRDTSTSTVYMELSSLRSEDTAVYYCARPGGGSYQEFDYWGQGTLVTVSS
VL: DIQMTQSPSSLSASVGDRVTITCRASQSISSYLNWYQQKPGKAPKLLISAASSLQSGVPSRFSGSGSGTDFTLTISSLQPEDFATYYCQQSYNTLQVTFGGGTKVEIK
B3: COVIC-128 (antibody)
chain 1: not shown
chain 2: QVQLQESGGGLVQAGGSLRLSCAASGRTFSEYAMGWFRQAPGKEREFVATISWSGGSTYYTDSVKGRFTISRDNAKNTVYLQMNSLKPDDTAVYYCAAAGLGTVVSEWDYDYDYWGQGTQVTVSSGGSGGSQVQLQESGGGLVQAGGSLRLSCVASGSIFSINAMDWYRQAPGKQRELVAGITSGGSTNYGDFVKGRFTISRDNAKNTVYLQMDSLKPEDTAVYYCAAEVGGWGPPRPDYWGHGTQVTVSSGGGGSGGGGSKRTVAAPSVFIFPPSDEQLKSGTASVVCLLNNFYPREAKVQWKVDNALQSGNSQESVTEQDSKDSTYSLSSTLTLSKADYEKHKVYACEVTHQGLSSPVTKSFNRGEC
B4: COVIC-143 (antibody, V domains shown)
VH: EVQLVESGGGVVQPGRSLRLSCAASGFTFSNYAMHWVRQAPGKGLEWVAVISYDGSNKYSADSVKGRFTISRDNSKNTLYLQMNSLRPEDTAVYYCARDGVGTMVRGVMSPLFDYWGQGTLVTVSS
VL: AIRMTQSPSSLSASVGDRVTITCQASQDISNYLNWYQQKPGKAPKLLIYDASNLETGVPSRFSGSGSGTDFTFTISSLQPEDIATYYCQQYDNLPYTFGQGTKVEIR
B5: COVIC-290 (antibody, V domains shown)
VH: QMQLVQSGPEVKKPGTSVKVSCKASGFTFSSSAVQWVRQARGQHLEWIGWIVVGSGNTNYAQKFQERVTLTRDMSTRTAYMELSSLRSEDTAVYYCAAPNCNSTTCHDGFDIWGQGTVVTVSS
VL: EIVLTQSPGTLSLSPGERATLSCRASQSVRSSYLGWYQQKPGQAPRLLIYGASSRATGIPDRFSGSGSGTDFTLTISRLESEDFAVYYCQQYDNSPWTFGQGTKVEIK
B6: COVIC-250 (antibody, V domains shown)
VH: QVQLQQSGPGLVKPSETLALTCTVSGGSTSSYYWSWIRQPPGKGLEWIGSIYYSGSTDYNPSLKSRVTISLDTSKTQFSLKLSSVTAADTAVYYCARVDTSGWYTGDVFDYWGQGTLVTVSS
VL: DIQMTQPPSSLSASVGDRVTITCRASQSLSSYLNWYQQKPGKAPKLLIYAVFSLQSGVPSRFSGSGSGTDFTLTISSLQPEDFATYYCQQSYSTPLTFGGGTKVEIK
B7: COVIC-297 (antibody, V domains shown)
VH: EVLLVESGGGLIQPGGSLRLSCAASGLTVSSNYMSWVRQAPGKGLEWVSVIYSGGSTFYADSVKGRFTISRDNSKNTLYLQMNSLRAEDTAVYYCARDLVTWGLDYWGQGTLVTVSS
VL: AIQLTQSPSSLSASVGDRVTITCRASQGISSYLAWYQQKPGKAPKLLIYAASTLQSGVPSRFSGSGSGTDFTLTISSLQPEDFATYYCQLLNTDPITFGQGTRLEIK
B8: COVIC-31 (antibody, V domains shown)
VH: EVQLVESGVEVKKPGASVKVSCKAFGYTFTGQDMHWVRQAPGQGLEWMGWINPSSAGTNYAQKFQGRVTMTRDTSISTAYMELSRLRSDDTSVYYCRKMLTIFGKVNQTMLLISGAKGQWSPSLQWGQGTMVTVSS
VL: DIVMTQTPLSLSVTPGQPASISCKSGQSLLHSDGKTYLYWYLQKPGQPPQLLIYEVSNRFSGVPDRFSGSGSGTDFTLKISRVEAEDVGVYYCMQSIQLPPTFGQGTKVEIK
B9: COVIC-184 (antibody, V domains shown)
VH: QITLKESGPTLVKPTQTLTLTCTFSGFSLSTSGVGVGWIRQPPGKALEWLALIYWDDDKRYSPSLKSRLTITKDTSKNQVVLTMTNMDPVDTATYYCAHHKIERIFDYWGQGTLVTVSS
VL: QSALAQPASVSGSPGQSITISCTGTSSDVGAYNYVSWYQQHPGKAPKLMIYDVSKRPSGVSNRFSGSKSGNTASLTISGLQAEDEADYYCSSYTTSSTVFGGGTKLTVL

The binders below were run against SARS-CoV-2 spike RBD (Wuhan-Hu-1) (Severe acute respiratory syndrome …, UniProt P0DTC2) (assay: SPR).
With B1 the Kd was 0.266 nM. Work on B2 yielded a Kd of 6.1 nM. In the case of B3, the Kd is reported as 119 nM. B4 gave a Kd of 5.91 nM. With B5 the Kd was 0.326 nM. In the case of B6, the Kd is reported as 17.7 nM. For B7, the Kd was 0.271 nM. B8 showed a Kd of 70.2 nM. In the case of B9, the Kd is reported as 34.4 nM.
